In test [1] the target is T1, human ILT4 expressed on cells (human, UniProt Q8N423 22-597). As to the kind of experiment: cell-based or functional assay.
Test [2] addresses T2, recombinant human ILT4 (LILRB2) (human, UniProt Q8N423 22-460).
T2 construct: Bought protein (Acro Biosystems or R&D Systems); also called ILTR4
The test is described as follows: SPR, Biacore T200, medium resolution; koff held at its limit of 4.27e-5 s^-1. As for the experimental part: (§1) Label-free SPR analysis on a Biacore T200 instrument was utilized to measure antibody affinity to ILT4. CM4 sensor chips from Cytiva Inc. were utilized for all medium resolution analyses. Either anti-mouse Fc specific or anti-human Fc specific capture surfaces were prepared using standard amine coupling chemistry. Mouse, Chimera or Humanized mAbs were captured to their respective surfaces and ILT4 was injected across the surfaces from 101 nM to 0.79 nM in a 2-fold serial dilution series at a flow rate of 100 μL/min. The association phase was followed for 90 sec. while the dissociation phase was followed for 1200 sec. due to the medium resolution analysis implemented here. The sensorgrams were double-referenced and fit globally to a 1:1 interaction model with a term included for mass transport, and the equilibrium dissociation constant was calculated as KD=koff/kₒₙ. […] All kinetic experiments were performed at 25° C. in a buffer consisting of Hepes-buffered saline, pH 7.4, with 0.05% polysorbate 20 (HBS-P+) and 100 μg/ml Bovine Serum Albumin (BSA).
Background: In SPR one partner is held on a chip, and binding of the other changes the refractive index at the surface.

The target in test [3] is T2, recombinant human ILT4 (LILRB2). As to the kind of experiment: SPR, Biacore T200, mAb captured on anti-Fc, ILT4 injected, medium resolution, 25 C. As for the experimental part: as §1
The target in test [4] is T1, human ILT4 expressed on cells. As to the kind of experiment: flow cytometry, blockade of PE-HLA-G tetramer (5 µg/ml) binding to CHO-S/ILT4 cells, experiment 2. As for the experimental part:
(§2) In the second blocking experiment, the primary antibody dilutions were made by diluting antibody to 15 μg/ml in FACS buffer. Three independent sets of eleven 2.5-fold serial dilutions were then made in FACS buffer from 15 μg/ml to 0.002 μg/ml. Each dilution set was handled independently, and 50 μl from each was added to cells in duplicate. Control wells received FACS buffer with no antibody. Wells were mixed and incubated for 30 minutes at 4 degrees C. Cells were washed twice in FACS buffer.
(§3) In both blocking experiments, phycoerythrin (PE)-conjugated HLA-G tetramer was diluted in FACS buffer to 5 μg/ml and 100 μl per well was added to cells. Cells were incubated at 4 degrees C. for 30 minutes, washed twice in FACS buffer, and resuspended in 250 μl FACS buffer with 0.1 μg/ml propidium iodide.
(§4) Cells were acquired on an Attune flow cytometer, with 5000 propidium iodide-negative cells collected per sample, and MFI was recorded. Relative blocking activity was calculated with the following formula: 100−(Sample MFI−Background MFI)/(Top MFI−Background MFI)*100. Prism software (Graphpad) was used to plot MFI and relative blocking activity for each sample. The blocking potency for each antibody, represented as IC₅₀, was calculated with Prism software.

The target of test [5] is T2, recombinant human ILT4 (LILRB2). The test is described as follows: SPR, Biacore T200, medium resolution; koff held at its limit of 4.27e-5 s^-1; koff held at the limit, 1200 s of dissociation. As for the experimental part: as §1
Test [6] concerns the target T1, human ILT4 expressed on cells. As to the kind of experiment: flow cytometry blocking assay: ILT4-expressing CHO cells preincubated with antibody, then PE-HLA-G; HLA-G binding MFI falls from about 105000 (no antibody) to near 0. As for the experimental part: as §2, §3, §4
Test [7] addresses T2, recombinant human ILT4 (LILRB2). The test is described as follows: SPR, high resolution kinetics, triplicate.
Test [8] has the same target. The test is described as follows: SPR, high resolution kinetics, triplicate; 95% CI in parentheses.
In test [9] the target is T1, human ILT4 expressed on cells. As to the kind of experiment: flow cytometry on ILT4-CHO cells, unlabelled mAb titrated; competitor AF647-Hz45.01-LALA. As to the method:
(§5) Competition binding assays were performed. […] Binding activities were measured by flow cytometry.
Anti-human ILT4 mAbs at various concentrations (0-15 μg/ml) were incubated with ILT4-CHO cells. Cells were washed and stained with AF647-Hz45.01-LALA. Cells were analyzed by flow cytometry.
On the technique in general: In flow cytometry, cells or beads pass a laser one at a time.

Test [10] shares this target. As to the kind of experiment: flow cytometry on ILT4-CHO cells, unlabelled mAb titrated; competitor AF647-Hz156.03-LALA. As to the method: as §5
Anti-human ILT4 mAbs at various concentrations (0-15 μg/ml) were incubated with ILT4-CHO cells. Cells were washed and stained with AF647-Hz156.03-LALA. Cells were analyzed by flow cytometry.

Test [11] shares this target. The test is described as follows: flow cytometry, blockade of PE-HLA-G tetramer (5 µg/ml) binding to CHO-S/ILT4 cells, experiment 1.
For test [12] the target is unchanged. Described as above. The source holds these as a separate data set.
Test [13] has the same target. The test is described as follows: cell-based or functional assay. The source holds these as a separate data set.
Test [14] shares this target. The test is described as follows: cell-based or functional assay. This is another data set of the same source.
Test [15] shares this target. As to the kind of experiment: flow cytometry, blockade of PE-HLA-G tetramer binding to ILT4-CHO cells, Experiment 1.
Test [16] has the same target. As to the kind of experiment: flow cytometry, blockade of PE-HLA-G tetramer binding to ILT4-CHO cells, Experiment 2.
The target is the same in test [17]. The test is described as follows: flow cytometry, blockade of PE-HLA-G tetramer binding to ILT4-CHO cells, Experiment 3.
Test [18] has the same target. As to the kind of experiment: flow cytometry, blockade of PE-HLA-A tetramer (5 ug/ml) binding to ILT4-CHO cells, Experiment 1 (table title prints HLA-G).
For test [19] the target is unchanged. As to the kind of experiment: flow cytometry, blockade of PE-HLA-A tetramer (5 ug/ml) binding to ILT4-CHO cells, Experiment 2 (table title prints HLA-G).
Test [20] has the same target. As to the kind of experiment: flow cytometry, blockade of PE-HLA-A tetramer (5 ug/ml) binding to ILT4-CHO cells, Experiment 3 (table title prints HLA-G).

Bounds are passed on as bounds.

T1 sequence (Q8N423 22-597): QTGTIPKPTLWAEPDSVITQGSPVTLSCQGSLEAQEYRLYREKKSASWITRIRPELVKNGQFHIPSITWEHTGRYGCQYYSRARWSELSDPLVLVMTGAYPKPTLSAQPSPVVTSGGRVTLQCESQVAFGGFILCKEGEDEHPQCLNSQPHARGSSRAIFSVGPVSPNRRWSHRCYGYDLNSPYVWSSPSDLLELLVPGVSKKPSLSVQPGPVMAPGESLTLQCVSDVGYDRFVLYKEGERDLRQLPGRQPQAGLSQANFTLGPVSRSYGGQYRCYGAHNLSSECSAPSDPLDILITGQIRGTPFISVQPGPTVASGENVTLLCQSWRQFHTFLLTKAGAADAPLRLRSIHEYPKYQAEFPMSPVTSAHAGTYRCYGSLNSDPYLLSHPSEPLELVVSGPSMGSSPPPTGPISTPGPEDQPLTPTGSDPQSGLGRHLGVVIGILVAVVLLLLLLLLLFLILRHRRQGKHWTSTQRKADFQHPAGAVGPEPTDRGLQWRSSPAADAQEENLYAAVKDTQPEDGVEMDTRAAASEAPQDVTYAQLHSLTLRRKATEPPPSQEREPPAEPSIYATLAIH
T2 sequence (Q8N423 other isoform, or with tags, fused parts or gaps limits assumed): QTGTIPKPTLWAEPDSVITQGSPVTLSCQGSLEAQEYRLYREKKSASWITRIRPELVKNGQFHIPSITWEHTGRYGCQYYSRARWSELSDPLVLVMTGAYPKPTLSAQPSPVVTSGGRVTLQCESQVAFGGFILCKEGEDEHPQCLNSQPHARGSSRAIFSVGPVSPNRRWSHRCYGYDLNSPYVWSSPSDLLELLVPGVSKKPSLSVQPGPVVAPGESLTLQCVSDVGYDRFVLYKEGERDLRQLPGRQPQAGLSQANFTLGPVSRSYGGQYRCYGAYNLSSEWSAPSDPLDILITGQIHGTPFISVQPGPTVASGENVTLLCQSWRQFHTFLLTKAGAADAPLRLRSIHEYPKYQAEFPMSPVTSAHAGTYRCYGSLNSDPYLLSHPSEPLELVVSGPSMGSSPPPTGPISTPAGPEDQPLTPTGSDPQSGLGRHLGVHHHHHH

B1: L156S3 (antibody, IgG2a, V domains shown)
VH: QVQLKQSGAELVRPGASVKLSCRASGYTFTDYYMNWVKQRPGQGLEWIARIYPGVYRTHYNEKFKDKATLTAEKSSSTAYMELSSLTSEDSAVYFCARSGYYGGTYEEDAMDYWGQGTSVTVSS
VL: DIQMTQSPASLSVSVGETVTITCRASENIYSNLAWYQQKQGKSPQLLVYAATSLADGVPSRFRGSGSGTQYSLKISSLQSEDFGNYYCQNFWDTPYTFGGGTKLEIK
notes: also called mouse anti-human ILT4 antibody L156S3
Usually Kd stands for the equilibrium constant for the complex coming apart. In general, kon refers to a measure of how fast the partners come together. Usually IC50 stands for the concentration that gives 50% inhibition. High values mean weaker potency in that assay, low ones greater potency in that assay. Broadly, the koff is a measure of how fast the partners let go of each other. With B1, the “IL-6 secretion by LPS-stimulated M2 macrophages (MSD), fold over control” value in test [1] stood at 2 fold. Moreover, the Kd in test [2] is at most 0.16 nM. In test [3], the on-rate constant (kon) was determined as 269000 M⁻¹ s⁻¹. In addition, the IC50 amounted to 0.113 µg/mL in [4] and 0.088 µg/mL in test [6]. The koff in test [5] is at most 4.27e-05 s⁻¹.

B2: J19h1 (antibody, V domains shown)
VH: QITLKESGPTLVKPTQTLTLTCTFSGFSLNTYAMGVSWIRQPPGKALEWLASIWWNGNKYNNPSLKSRLTVTKDTSKNQVVLTMTNMDPVDTATYYCAHSRIIRFTDYVMDAWGQGTLVTVSS
VL: DIQMTQSPSSLSTSVGDRVTITCRASEDIYNDLAWYQQKPGKAPKLLIYNANSLHTGVASRFSGSGSGTDFTFTISSLQPEDVATYFCQQYYDYPLTFGQGTKLEIKR
With B2, in test [1], the “IL-6 secretion, fold over control, Donor A” value worked out at 3 fold. The “IL-6 secretion, fold over control, Donor B” value in test [1] amounted to 2 fold. Also, the “TNF-α secretion, fold over negative control” value in test [1] stood at 8 fold. Moreover, the Kd in [7] amounted to 0.85 nM. Besides, the dissociation rate constant (koff) in test [7] is 0.00433 s⁻¹. Moreover, the on-rate (kon) in test [8] was determined as 5.11e+06 M⁻¹ s⁻¹. Besides, the IC50 in [9] was 0.182 µg/mL; in test [10], 0.0796 µg/mL; in test [12], 0.13 µg/mL; in test [4], 0.216 µg/mL; in test [6], 0.233 µg/mL. Besides, the “fold decrease of PE-HLA-G MFI” value in test [11] was at most 22 fold.

B3: 1E1 (antibody, V domains shown)
VH: QVQLQQWGAGLLKPSETLSLTCAVYGGSFSGYYWSWIRQPPGKGLEWIGEINHSGSTNYNPSLKSRVTISVDTSKNQFSLKLSSVTAADTAVYYCARLPTRWVTTRYFDLWGRGTLVTVSS
VL: QSVLTQPPSVSGAPGQRVTISCTGSSSNIGAGYDVHWYQQLPGTAPKLLIYGNSNRPSGVPDRFSVSKSGASASLAITGLQAEDEADYYCQSFDNSLSAYVFGGGTQLTVL
As to B3, in [13], the “EC50 value of TNFa production, donor 4” value amounted to 0.00877 µg/mL. Moreover, the “EC50 value of TNFa production, donor 5” value in [13] is 0.0235 µg/mL. Also, the “EC50 value of IL-6 production, donor 4” value in test [14] turned out to be 0.00374 µg/mL. For the same molecule, in test [14], the “EC50 value of IL-6 production, donor 5” value is 0.0139 µg/mL. The Kd in test [7] amounted to 5.5 nM. The koff in [7] came to 0.00895 s⁻¹. The kon in test [8] was 1.62e+06 M⁻¹ s⁻¹. Moreover, the IC50 in test [15] was found to be 0.194 µg/mL; in test [16] it was 0.162 µg/mL; in test [17] it was 0.151 µg/mL; in test [9], 0.171 µg/mL; in [10], 0.336 µg/mL; in test [12] it was 0.13 µg/mL. Further, the IC50 in test [4] stood at 0.075 µg/mL; in test [18], 0.102 µg/mL; in [19], 0.107 µg/mL; in [20], 0.0956 µg/mL; in test [6] it was 0.096 µg/mL. Further, the “fold decrease of PE-HLA-G MFI” value in test [11] is at most 30 fold.

The record behind these values is patent US20260167714A1 (COHERUS BIOSCIENCES, published 2026).
